According to patent US20090291081A1 (AbbVie / Abbott, published 2009):

T1: human IL-1α (human, UniProt P01583 113-271)
T1 sequence (looked up): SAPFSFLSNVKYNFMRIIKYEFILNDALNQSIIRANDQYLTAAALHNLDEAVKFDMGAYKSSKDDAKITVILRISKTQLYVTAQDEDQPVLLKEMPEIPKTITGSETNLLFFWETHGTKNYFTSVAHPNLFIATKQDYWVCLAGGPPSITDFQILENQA


Assays:
human IL-1α = molecular target: T1, human IL-1α; experiment: cell-based or functional assay
human IL-1β [1] = molecular target: human IL-1β (human, UniProt P01584 117-269); experiment: cell-based or functional assay
human IL-1β [2] = molecular target: T2, human IL-1β (human, UniProt P01584 117-269); experiment: cell-based or functional assay; remark: listed apart in the source
human IL-1β [3] = molecular target: T2, human IL-1β; experiment: IC50 column of Table 63; receptor binding assay presumed

Binder	IL-1α IC50 (human IL-1α) [nM]	IL-1β IC50 (human IL-1β [1]) [nM]	ND50 (human IL-1β [2]) [nM]	IC50 (human IL-1β [3]) [nM]
ABT2-65-17/ABT1-212 hu IgG1/K wt (bispecific antibody, V domains shown) VH: EVQLLESGGGLVQPGGSLRLSCVASGFTFEDYQMGWVRQAPGKGLEWVSSISAMGNRTYYADSVKGRFTISRDDSKNTLYLQMNSLRAEDTAVYYCAQNLVRLGRSRWMFDYWGQGTLVTVSS VL: DIQMTQSPSSLSASVGDRVTITCRASQRINGNLRWYQQKPGKAPKLLIYSVSQLQSGVPSRFSGSGSGTDFTLTISSLQPEDFATYYCQQGYDWPPTFGQGTKVETKR	100			
ABT2-65-85 (other, VH dAb) VH: EVQLMESGGGLVQPGGSLRLSCVASGFTFEDYQMGWVRQAPGKGLEWVSSISAMGNRTYYADSVKGRFAISRDDSKNTLYLQMNSLRAKDTAVYYCAQNLVRLGRSRWMFDYWGQGTLVTVSS			2	7
ABT2-65-81 (other, VH dAb) VH: EVQLLESGGGLVQPGGSLRLSCVASGFTFEEYQMGWVRQAPGKGLEWVSSISAMGNRTYYADSVKGRFTISRDDSKNTLYLQMNSLRAEDTAVYYCAQNLVRLGRSRWMFDYWGQGTLVTVSS			2	10
ABT2-65-154 (other, VH dAb) VH: EVQLLESGGGLVQPGGSLRLSCAASGFTFEDYQMGWVRQAPGKGLEWVSSISAMGNRTHYADSVKGRFTISRDDSKNTLYLQMNSLRAEDTAVYYCAQNLVRIRRTKWMFDYWGQGTLVTVSS			1.5	3
ABT2-65-6 (other, VH dAb) VH: EVQLLESGGGLVQPGGSLRLSCAASGFTFEDYQMGWVRQAPGKGLEWVSSISAMGNRTYYADSVKGRFTISRDDSKNTLYLQMNSLRAEDTAVYYCAQNLVRTQSKMWMFDYWGQGTLVTVSS			> 1000	30
ABT2-65-82 (other, VH dAb) VH: EVQLLESGGGLVRPGGSLRLSCVASGFTFEDYQMGWVRQAPGKGLEWVSSISAMGNRTYYADSVKGRFTISRDDPKNTLYLQMNSLRAEDTAVYYCAQNLVRLGRSRWMFDYWGQGTLVTVSS			2	8
ABT2-65-7 (other, VH dAb) VH: EVQLLESGGGLVQPGGSLRLSCAASGFTFEDYQMGWVRQAPGKGLEWVSSISATGNRTYYADSVKGRFTISRDDSKNTLYLQMNSLRAEDTAVYYCAQNLVRTRIKMWMFDYWGQGTLVTVSS			200	30
ABT2-65-48 (other, VH dAb) VH: EVQLLESGGGLVQPGGSLRLSCAASGFTFEDYQMGWVRQAPGKGLEWVSSISAMGNRTYYADSVKGRFTISRDDSKNTLYLQMNSLRAEDTAVYYCAKWQMRTQSKLGYFDYWGQGTLVTVSS			80	20
ABT2-65-47 (other, VH dAb) VH: EVQLLESGGGLVQPGGSLRLSCAASGFTFEDYQMGWVRQAPGKGLEWVSSISAMGNRTYYADSVKGRFTISRDDSKNTLYLQMNSLRAEDTAVYYCAKWRKRTQSKLGYFDYWGQGTLVTVSS			80	20
ABT2-65-113 (other, VH dAb) VH: EVQLLESGGGLVQPGGSLRLSCAASGFTFVQYQMGWVRQAPGKGLEWVSSISAMGNRTYYADSVKGRFTISRDDSKNTLYLQMNSLRAEDTAVYYCAQNLVRLGRSRWMFDYWGQGTLVTVSS			3	3.3
ABT2-65-79 (other, VH dAb) VH: EVQLLESGGGLVQPGGSLRLSCVASGFTFEDYQMGWVRQAPGKGLEWVSSISAMGNRTYYADSVKGRFTISRDDSKNTLYLQMNSLRAGDTAVYYCAQNLVRLGRSRWMFDYWGQGTMVTVSS			2	6
ABT2-65-89 (other, VH dAb) VH: EVQLLESGGGLVQPGGSLRLSCVASGFTFEDYQMGWVRQAPGKGLEWVSSISAMGNRTYYADSVKGRFTISRDDSKNTLYLQMNSLRAEDTAVYYCAQNMVRLGRSRWMFDYWGQGTLVTVSS			2	10
ABT2-65-140 (other, VH dAb) VH: EVQLLESGGGLVQPGGSLRLSCAASGFTFEDYQMGWVRQAPGKGLEWVSSISAMGNRTYYADSVKGRFTISRDDSKNTLYLQMNSLRAEDTAVYYCAENLVKISRRHWMFDYWGQGTLVTVSS			1	2
ABT2-65-8 (other) VH: EVQLLESGGGLVQPGGSLRLSCAASGFTFEDYQMGWVRQAPGKGLEWVSSISAMGNRTYYADSVKGRFTISRDDSKNTLYLQMNSLRAEDTAVYYCAQNLVRMDSRRWMFDYWGQGTLVTVSS			3	10

The remaining lines, values ahead:

IL-1α IC50 (human IL-1α) [nM]	IL-1β IC50 (human IL-1β [1]) [nM]	ND50 (human IL-1β [2]) [nM]	IC50 (human IL-1β [3]) [nM]	Binder
1000				ABT2-108-533x/ABT1-122 hu IgG1/K wt (bispecific antibody, V domains shown) VH: EVQLLESGGGLVQPGGSLRLSCAASGFTFADEGMMWVRQAPGKGLEWVSRIGQDGKNTYYADSVKGRFTISRDNSKNTLYLQMNSLRAEDTAVYYCAKYTGRILGHHLFDYWGQGTLVTVSS VL: DIQMTQSPSSLSASVGDRVTITCRASQPIWTELNWYQQKPGKAPKLLIYGSSSLQSGVPRFSGSGSGTDFTLTISSLQPEDFATYYCQQFAYFPATFGQGTKVEIKR
2000	20			ABT2-108/ABT1-122-505 hu IgG1/K wt (bispecific antibody, V domains shown) VH: EVQLLESGGGLVQPGGSLRLSCAASGFTFAEYTMMWVRQAPGKGLEWVSRIGQDGKNTYYADSVKGRFTISRDNSKNTLYLQMNSLRAEDTAVYYCAKYTGRVGVHHLFDYWGQGTLVTSS VL: DIQMTQSPSSLSASVGDRVTITCRASQPIWTELNWYQQKPGKAPKLLIYGSSSLQSGVPSRFSGSGSGTDFTLTISSLQPEDFATYYCKQFAYFPATFGQGTKVEIKR
150	0.16			ABT2-108-521/ABT1-122-511 hu IgG1/K wt (bispecific antibody, V domains shown) VH: EVQLLESGGGLVQPGGSLRLSCAASGFTFAEYTMMWVRQAPGKGLEWVSRIGQDGKNTYYADSVKGRFTISRDNSKNTLYLQMNSLRAEDTAVYYCAKYTGRILGHHLFDYWGQGTLVTVSS VL: DIQMTQSPSSLSASVGDRVTITCRASQPIWTELNWYQQKPGKAPKLLIYGSSSLQRGVPSRFSGSGSGTDFTLTISSLQPEDFATYYCKQFAYFPATFGQGTKVEIKR
150	15			ABT2-108/ABT1-122-556 hu IgG1/K wt (bispecific antibody, V domains shown) VH: EVQLLESGGGLVQPGGSLRLSCAASGFTFAEYTMMWVRQAPGKGLEWVSRIGQDGKNTYYADSVKGRFTISRDNSKNTLYLQMNSLRAEDTAVYYCAKYTGRVGVHHLFDYWGQGTLVTSS VL: DIQMTQSPSSLSASVGDRVTITCRASQPIWTELNWYQQKPGKAPKLLIYGSSSLQSGVPSRFSGSGSGTDFTLTISSLQPEDFATYHCQQFAYFPATFGQGTKVEIKR
150	9			ABT2-108/ABT1-122-554 hu IgG1/K wt (bispecific antibody, V domains shown) VH: EVQLLESGGGLVQPGGSLRLSCAASGFTFAEYTMMWVRQAPGKGLEWVSRIGQDGKNTYYADSVKGRFTISRDNSKNTLYLQMNSLRAEDTAVYYCAKYTGRVGVHHLFDYWGQGTLVTSS VL: DIQMTQSPSSLSASVGDRVTITCRASQPIWTELNWYQQKPGKAPKLLIYGSSSLQSGVPSRFSGSGSGTDFTLTISSLQPEDFATYYCQQFAYFPATFGQETKVEIKR
70	7			ABT2-108/ABT1-122-555 hu IgG1/K wt (bispecific antibody, V domains shown) VH: EVQLLESGGGLVQPGGSLRLSCAASGFTFAEYTMMWVRQAPGKGLEWVSRIGQDGKNTYYADSVKGRFTISRDNSKNTLYLQMNSLRAEDTAVYYCAKYTGRVGVHHLFDYWGQGTLVTSS VL: DIQMTQSPSSLSASVGDRVTITCRASQPIWTELNWYQQKPGKTPKLLIYGSSSLQSGVPSRFSGSGSGTDFTLTISSLQPEDFATYYCQQFAYFPATFGQGTKVEIKR
150	0.006			ABT2-108-620x/ABT1-122-512 huIgG1/K wt (bispecific antibody, V domains shown) VH: EVQLLESGGGLVQPGGSLRLSCAASGFTFAEESWMWVRQAPGKGLEWVSRIGQDGKNTYYREDVKGRFTISRDNSKNTLYLQMNSLRAEDTAVYYCAKYTGRIMGHHLFDYWGQGTLVTVSS VL: DIQMTQSPSSLSASVGDRVTITCRASQPIWTELNWYQQKPGKAPKLLIYGSAKRQRGVPSRFSGSGSGTDFTLTISSLQPEDFATYYCKQFAYFPATFGQGTKVEIKR
400	20			ABT2-108/ABT1-122-508 hu IgG1/K wt (bispecific antibody, V domains shown) VH: EVQLLESGGGLVQPGGSLRLSCAASGFTFAEYTMMWVRQAPGKGLEWVSRIGQDGKNTYYADSVKGRFTISRDNSKNTLYLQMNSLRAEDTAVYYCAKYTGRVGVHHLFDYWGQGTLVTSS VL: DIQMTQSPSSLSASVGDRVTITCRASQPIWTELNWYQQKPGKAPKLLIYGSSSLQRGVPSRFSGSGSGTDFTLTISSLQPEDFATYYCQQFAYFPATFGQGTKVEIKR
25	0.015			ABT2-108-538x/ABT1-122-555 hu IgG1/K wt (bispecific antibody, V domains shown) VH: EVQLLESGGGLVQPGGSLRLSCAASGFTFADEGMMWVRQAPGKGLEWVSRITYSGKNTYYADSVKGRFTISRDNSKNTLYLQMNSLRAEDTAVYYCAKYTGRILGHHLFDYWGQGTLVTVSS VL: DIQMTQSPSSLSASVGDRVTITCRASQPIWTELNWYQQKPGKTPKLLIYGSSSLQSGVPSRFSGSGSGTDFTLTISSLQPEDFATYYCQQFAYFPATFGQGTKVEIKR
		4	4	ABT2-65-166 (other) VH: EVQLLESGGGLVQPGGSLRLSCAASGFTFEDYQMGWVRQAPGKGLEWVSSISAMGGRTYYADSVKGRFTISRDNSKNTLYLQMNSLRAEDTAVYYCAQNLVRLGRSRWMFDYWGQGTLVTVSS
